Assay [1] concerns the target 108 of 110 HLA types. Put plainly: cell-based or functional assay.
Assay [2] addresses the alloreactive alleles (2 of 110 HLA types). Kind of assay: cell-based or functional assay.

Some results are limits rather than exact numbers.

B1: E7-11-28 MGTM (MG-modified TCR E7-11-28) (TCR)
TCR alpha: GQQVMQIPQYQHVQEGEDFTTYCNSSTTLSNIQWYKQRPGGHPVFLIQLVKSGEVKKQKRLTFQFGEAKKNSSLHITATQTTDVGTYFCAGIGSSNTGKLIFGQGTTLQVKPDIQNPDPAVYQLRDSKSSDKSVCLFTDFDSQTNVSQSKDSDVYITDKTVLDMRSMDFKSNSAVAWSNKSDFACANAFNNSIIPEDTFFPSSDVPCDVKLVEKSFETDTNLNFQNLLVIVLRILLLKVAGFNLLMTLRLWS
TCR beta: EPEVTQTPSHQVTQMGQEVILRCVPISNHLYFYWYRQILGQKVEFLVSFYNNEISEKSEIFDDQFSVERPDGSNFTLKIRSTKLEDSAMYFCAITGRVSYEQYFGPGTRLTVTEDLNKVFPPEVAVFEPSKAEIAHTQKATLVCLATGFFPDHVELSWWVNGKEVHSGVSTDPQPLKEQPALNDSRYCLSSRLRVSATFWQNPRNHFRCQVQFYGLSENDEWTQDRAKPVTQIVSAEAWGRADCGITSASYHQGVLSATILYEILLGKATLYAVLVSALVLMAMVKRKDFGSGRAKRSGSG
As to B1, the inhibition on target cell growth after 48 h of co-culture (alloreactivity screen) (% target cell inhibition) in assay [1] was less than 20; in assay [2] it was more than 20.

For the origin of these results see US20230272049A1.
